# In PMC9482650, “Quantitative fragmentomics allow affinity mapping of interactomes” (Nature Communications, 2022):
# Substitutions are numbered along the chain they refer to.
# T1: DLG3_1, Q92796
# T1 sequence (Q92796 125-227, limits assumed, looked up): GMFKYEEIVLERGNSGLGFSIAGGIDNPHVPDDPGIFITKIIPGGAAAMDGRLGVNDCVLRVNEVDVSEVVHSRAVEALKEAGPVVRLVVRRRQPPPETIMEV
# T2: DVL3, Q92997
# T2 sequence (Q92997 244-331, limits assumed, looked up): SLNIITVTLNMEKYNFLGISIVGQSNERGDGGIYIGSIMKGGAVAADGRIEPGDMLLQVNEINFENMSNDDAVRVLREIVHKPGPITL
# T3: SNTG1, Q9NSN8
# T3 sequence (Q9NSN8 52-150, limits assumed, looked up): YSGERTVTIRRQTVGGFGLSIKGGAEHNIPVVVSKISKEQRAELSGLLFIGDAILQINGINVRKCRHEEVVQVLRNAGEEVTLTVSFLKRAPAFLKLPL
# T4: LIN7A, O14910
# T4 sequence (O14910 103-200, limits assumed, looked up): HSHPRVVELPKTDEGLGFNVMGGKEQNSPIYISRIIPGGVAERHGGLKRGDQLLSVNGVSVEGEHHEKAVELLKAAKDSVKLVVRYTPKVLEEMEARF
# T5: PDZRN3_1, Q9UPQ7
# T5 sequence (Q9UPQ7 244-349, limits assumed, looked up): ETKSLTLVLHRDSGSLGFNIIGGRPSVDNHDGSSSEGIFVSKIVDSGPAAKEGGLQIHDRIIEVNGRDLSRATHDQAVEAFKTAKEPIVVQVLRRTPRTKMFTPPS
# T6: DLG3_2, Q92796
# T6 sequence (Q92796 221-321, limits assumed, looked up): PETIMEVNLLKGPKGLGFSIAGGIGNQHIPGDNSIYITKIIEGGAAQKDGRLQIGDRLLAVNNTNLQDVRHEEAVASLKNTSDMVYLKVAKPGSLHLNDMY
# T7: LIN7B, Q9HAP6
# T7 sequence (Q9HAP6 88-185, limits assumed, looked up): T4 sequence (O14910 103-200, limits assumed, looked up) with S2A, V20I, I35V, E42D, H65Q, K77Q, D78G, K89R
# T8: MPP6, Q9NZW5
# T8 sequence (Q9NZW5 125-219, limits assumed, looked up): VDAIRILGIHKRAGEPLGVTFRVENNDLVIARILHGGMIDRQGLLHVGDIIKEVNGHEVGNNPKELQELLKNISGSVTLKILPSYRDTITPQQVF
# T9: APBA2_1, Q99767
# T9 sequence (Q99767 563-664, limits assumed, looked up): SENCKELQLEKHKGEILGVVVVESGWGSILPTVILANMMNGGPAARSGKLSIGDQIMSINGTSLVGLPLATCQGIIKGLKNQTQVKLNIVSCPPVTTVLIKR
# T10: FRMPD1, Q5SYB0
# T10 sequence (Q5SYB0 52-145, limits assumed, looked up): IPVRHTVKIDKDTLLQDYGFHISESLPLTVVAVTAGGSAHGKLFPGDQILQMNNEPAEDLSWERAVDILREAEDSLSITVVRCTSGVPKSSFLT
# T11: PCLO, Q9Y6V0
# T11 sequence (Q9Y6V0 4491-4600, limits assumed, looked up): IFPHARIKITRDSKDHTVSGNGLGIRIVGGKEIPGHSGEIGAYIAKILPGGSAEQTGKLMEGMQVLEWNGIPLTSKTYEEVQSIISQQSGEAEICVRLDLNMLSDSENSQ
# T12: GRIP1_2, Q9Y3R0
# T12 sequence (Q9Y3R0 145-248, limits assumed, looked up): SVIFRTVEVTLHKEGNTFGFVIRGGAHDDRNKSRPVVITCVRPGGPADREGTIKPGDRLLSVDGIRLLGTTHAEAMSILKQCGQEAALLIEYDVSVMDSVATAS
# B1: KIRREL1, Q96J84 (peptide)
# chain: RFQQRMQTHV
# B2: HTR2A, P28223 (peptide)
# chain: DGVNEKVSCV
# B3: SRC, P12931 (peptide)
# chain: EPQYQPGENL
# Molecular target: GRID2IP_1, A4D2P6
# Assay: holdup assay
# Design: key: below the threshold = too weak to quantify, mostly under pKd 3.1 to 4
# Details: plain residues with an end cap or a label only (N-terminal biotin on a linker: ado-ado)
# Chain of GRID2IP_1, A4D2P6 (A4D2P6 1-87): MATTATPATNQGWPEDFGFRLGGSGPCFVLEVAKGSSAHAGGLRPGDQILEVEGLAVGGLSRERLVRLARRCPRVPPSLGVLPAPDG
row,Binder,pKd
1,B1,below the threshold
2,B2,below the threshold
3,B3,below the threshold

# Molecular target: SCRIB_3, Q14160
# Assay: holdup assay
# Design: key: below the threshold = too weak to quantify, mostly under pKd 3.1 to 4
# Details: plain residues with an end cap or a label only (N-terminal biotin on a linker: ado-ado)
# Chain of SCRIB_3, Q14160 (Q14160 999-1103): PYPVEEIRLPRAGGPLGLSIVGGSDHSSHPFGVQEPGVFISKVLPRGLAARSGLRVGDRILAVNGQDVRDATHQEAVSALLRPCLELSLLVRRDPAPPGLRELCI
row,Binder,pKd
1,B1,4.33
2,B2,3.97
3,B3,3.71

# Molecular target: HTRA2, O43464
# Assay: holdup assay
# Design: key: below the threshold = too weak to quantify, mostly under pKd 3.1 to 4
# Details: plain residues with an end cap or a label only (N-terminal biotin on a linker: ado-ado)
# Chain of HTRA2, O43464 (O43464 355-458): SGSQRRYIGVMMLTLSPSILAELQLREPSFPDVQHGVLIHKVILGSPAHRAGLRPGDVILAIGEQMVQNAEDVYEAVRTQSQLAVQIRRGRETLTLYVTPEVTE
row,Binder,pKd
1,B1,below the threshold
2,B2,below the threshold
3,B3,3.53

# Molecular target: T1, DLG3_1, Q92796
# Assay: holdup assay
# Design: key: below the threshold = too weak to quantify, mostly under pKd 3.1 to 4
# Details: plain residues with an end cap or a label only (N-terminal biotin on a linker: ado-ado)
row,Binder,pKd
1,B1,3.57
2,B2,below the threshold
3,B3,below the threshold

# Molecular target: NHERF4_1, Q86UT5-2
# Assay: holdup assay
# Design: key: below the threshold = too weak to quantify, mostly under pKd 3.1 to 4
# Details: plain residues with an end cap or a label only (N-terminal biotin on a linker: ado-ado)
# Chain of NHERF4_1, Q86UT5-2 (Q86UT5 other isoform, or with tags, fused parts or gaps): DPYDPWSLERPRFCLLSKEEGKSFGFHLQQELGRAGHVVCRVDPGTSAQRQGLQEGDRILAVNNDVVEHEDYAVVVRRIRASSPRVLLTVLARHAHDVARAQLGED
row,Binder,pKd
1,B1,3.7
2,B2,below the threshold
3,B3,3.59

# Molecular target: T2, DVL3, Q92997
# Assay: holdup assay
# Design: key: below the threshold = too weak to quantify, mostly under pKd 3.1 to 4
# Details: plain residues with an end cap or a label only (N-terminal biotin on a linker: ado-ado)
row,Binder,pKd
1,B1,below the threshold
2,B2,below the threshold
3,B3,below the threshold

# Molecular target: T3, SNTG1, Q9NSN8
# Assay: holdup assay
# Design: key: below the threshold = too weak to quantify, mostly under pKd 3.1 to 4
# Details: plain residues with an end cap or a label only (N-terminal biotin on a linker: ado-ado)
row,Binder,pKd
1,B1,below the threshold
2,B2,4.33
3,B3,below the threshold

# Molecular target: T4, LIN7A, O14910
# Assay: holdup assay
# Design: key: below the threshold = too weak to quantify, mostly under pKd 3.1 to 4
# Details: plain residues with an end cap or a label only (N-terminal biotin on a linker: ado-ado)
row,Binder,pKd
1,B1,below the threshold
2,B2,3.51
3,B3,below the threshold

# Molecular target: FRMPD2_2, Q68DX3
# Assay: holdup assay
# Design: key: below the threshold = too weak to quantify, mostly under pKd 3.1 to 4
# Details: plain residues with an end cap or a label only (N-terminal biotin on a linker: ado-ado)
# Chain of FRMPD2_2, Q68DX3 (Q68DX3 944-1038): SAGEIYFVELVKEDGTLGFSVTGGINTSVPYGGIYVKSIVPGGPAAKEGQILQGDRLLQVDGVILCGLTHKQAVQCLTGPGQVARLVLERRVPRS
row,Binder,pKd
1,B1,below the threshold
2,B2,4.65
3,B3,below the threshold

# Molecular target: Inadl_8, Q8NI35
# Assay: holdup assay
# Design: key: below the threshold = too weak to quantify, mostly under pKd 3.1 to 4
# Details: plain residues with an end cap or a label only (N-terminal biotin on a linker: ado-ado)
# Chain of Inadl_8, Q8NI35 (Q8NI35 1425-1530): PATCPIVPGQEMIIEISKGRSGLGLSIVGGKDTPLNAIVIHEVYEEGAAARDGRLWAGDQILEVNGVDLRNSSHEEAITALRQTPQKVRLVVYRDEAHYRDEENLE
row,Binder,pKd
1,B1,3.72
2,B2,4.81
3,B3,below the threshold

# Molecular target: T5, PDZRN3_1, Q9UPQ7
# Assay: holdup assay
# Design: key: below the threshold = too weak to quantify, mostly under pKd 3.1 to 4
# Details: plain residues with an end cap or a label only (N-terminal biotin on a linker: ado-ado)
row,Binder,pKd
1,B1,below the threshold
2,B2,below the threshold
3,B3,below the threshold

# Molecular target: T6, DLG3_2, Q92796
# Assay: holdup assay
# Design: key: below the threshold = too weak to quantify, mostly under pKd 3.1 to 4
# Details: plain residues with an end cap or a label only (N-terminal biotin on a linker: ado-ado)
row,Binder,pKd
1,B1,4.69
2,B2,4.82
3,B3,below the threshold

# Molecular target: LAP2, Q96RT1
# Assay: holdup assay
# Design: key: below the threshold = too weak to quantify, mostly under pKd 3.1 to 4
# Details: plain residues with an end cap or a label only (N-terminal biotin on a linker: ado-ado)
# Chain of LAP2, Q96RT1 (Q96RT1 other isoform, or with tags, fused parts or gaps): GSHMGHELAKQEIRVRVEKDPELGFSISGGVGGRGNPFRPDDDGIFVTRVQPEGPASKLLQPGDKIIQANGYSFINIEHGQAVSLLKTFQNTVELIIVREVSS
row,Binder,pKd
1,B1,below the threshold
2,B2,below the threshold
3,B3,below the threshold

# Molecular target: GORASP2, Q9H8Y8
# Assay: holdup assay
# Design: key: below the threshold = too weak to quantify, mostly under pKd 3.1 to 4
# Details: plain residues with an end cap or a label only (N-terminal biotin on a linker: ado-ado)
row,Binder,pKd
1,B1,4.12
2,B2,3.74
3,B3,below the threshold

# Molecular target: PDLIM1, O00151
# Assay: holdup assay
# Design: key: below the threshold = too weak to quantify, mostly under pKd 3.1 to 4
# Details: plain residues with an end cap or a label only (N-terminal biotin on a linker: ado-ado)
# Chain of PDLIM1, O00151 (O00151 1-87): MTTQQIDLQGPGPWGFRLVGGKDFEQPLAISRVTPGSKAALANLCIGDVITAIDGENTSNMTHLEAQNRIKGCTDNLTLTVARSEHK
row,Binder,pKd
1,B1,below the threshold
2,B2,below the threshold
3,B3,3.56

# Molecular target: T7, LIN7B, Q9HAP6
# Assay: holdup assay
# Design: key: below the threshold = too weak to quantify, mostly under pKd 3.1 to 4
# Details: plain residues with an end cap or a label only (N-terminal biotin on a linker: ado-ado)
row,Binder,pKd
1,B1,below the threshold
2,B2,3.79
3,B3,below the threshold

# Molecular target: T8, MPP6, Q9NZW5
# Assay: holdup assay
# Design: key: below the threshold = too weak to quantify, mostly under pKd 3.1 to 4
# Details: plain residues with an end cap or a label only (N-terminal biotin on a linker: ado-ado)
row,Binder,pKd
1,B1,below the threshold
2,B2,below the threshold
3,B3,below the threshold

# Molecular target: TJP1_3, Q07157
# Assay: holdup assay
# Design: key: below the threshold = too weak to quantify, mostly under pKd 3.1 to 4
# Details: plain residues with an end cap or a label only (N-terminal biotin on a linker: ado-ado)
# Chain of TJP1_3, Q07157 (Q07157 416-512): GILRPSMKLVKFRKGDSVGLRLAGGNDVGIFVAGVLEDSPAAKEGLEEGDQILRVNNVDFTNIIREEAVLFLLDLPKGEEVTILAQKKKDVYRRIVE
row,Binder,pKd
1,B1,below the threshold
2,B2,below the threshold
3,B3,below the threshold

# Molecular target: IL16_4, Q14005
# Assay: holdup assay
# Design: key: below the threshold = too weak to quantify, mostly under pKd 3.1 to 4
# Details: plain residues with an end cap or a label only (N-terminal biotin on a linker: ado-ado)
# Chain of IL16_4, Q14005 (Q14005 1229-1329): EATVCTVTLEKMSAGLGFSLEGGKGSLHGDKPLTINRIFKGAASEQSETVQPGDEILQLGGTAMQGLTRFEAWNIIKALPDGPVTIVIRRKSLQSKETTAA
row,Binder,pKd
1,B1,below the threshold
2,B2,3.56
3,B3,3.5

# Molecular target: HTRA1, Q92743
# Assay: holdup assay
# Design: key: below the threshold = too weak to quantify, mostly under pKd 3.1 to 4
# Details: plain residues with an end cap or a label only (N-terminal biotin on a linker: ado-ado)
# Chain of HTRA1, Q92743 (Q92743 360-477): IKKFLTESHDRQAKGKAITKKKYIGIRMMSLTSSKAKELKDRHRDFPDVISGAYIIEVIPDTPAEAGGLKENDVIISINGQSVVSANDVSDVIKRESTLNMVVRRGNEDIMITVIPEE
row,Binder,pKd
1,B1,below the threshold
2,B2,4.95
3,B3,below the threshold

# Molecular target: ARHGEF12, Q9NZN5-2
# Assay: holdup assay
# Design: key: below the threshold = too weak to quantify, mostly under pKd 3.1 to 4
# Details: plain residues with an end cap or a label only (N-terminal biotin on a linker: ado-ado)
# Chain of ARHGEF12, Q9NZN5-2 (Q9NZN5 other isoform, or with tags, fused parts or gaps): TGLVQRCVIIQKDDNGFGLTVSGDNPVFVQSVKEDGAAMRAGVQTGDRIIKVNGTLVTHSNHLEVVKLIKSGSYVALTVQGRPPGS
row,Binder,pKd
1,B1,4.44
2,B2,4.36
3,B3,below the threshold

# Molecular target: T9, APBA2_1, Q99767
# Assay: holdup assay
# Design: key: below the threshold = too weak to quantify, mostly under pKd 3.1 to 4
# Details: plain residues with an end cap or a label only (N-terminal biotin on a linker: ado-ado)
row,Binder,pKd
1,B1,below the threshold
2,B2,below the threshold
3,B3,below the threshold

# Molecular target: T10, FRMPD1, Q5SYB0
# Assay: holdup assay
# Design: key: below the threshold = too weak to quantify, mostly under pKd 3.1 to 4
# Details: plain residues with an end cap or a label only (N-terminal biotin on a linker: ado-ado)
row,Binder,pKd
1,B1,below the threshold
2,B2,below the threshold
3,B3,below the threshold

# Molecular target: LNX1_3, Q8TBB1
# Assay: holdup assay
# Design: key: below the threshold = too weak to quantify, mostly under pKd 3.1 to 4
# Details: plain residues with an end cap or a label only (N-terminal biotin on a linker: ado-ado)
# Chain of LNX1_3, Q8TBB1 (Q8TBB1 500-596): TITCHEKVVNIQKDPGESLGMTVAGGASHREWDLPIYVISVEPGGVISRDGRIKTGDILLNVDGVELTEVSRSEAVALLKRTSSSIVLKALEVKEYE
row,Binder,pKd
1,B1,below the threshold
2,B2,below the threshold
3,B3,below the threshold

# Molecular target: T11, PCLO, Q9Y6V0
# Assay: holdup assay
# Design: key: below the threshold = too weak to quantify, mostly under pKd 3.1 to 4
# Details: plain residues with an end cap or a label only (N-terminal biotin on a linker: ado-ado)
row,Binder,pKd
1,B1,below the threshold
2,B2,below the threshold
3,B3,below the threshold

# Molecular target: T12, GRIP1_2, Q9Y3R0
# Assay: holdup assay
# Design: key: below the threshold = too weak to quantify, mostly under pKd 3.1 to 4
# Details: plain residues with an end cap or a label only (N-terminal biotin on a linker: ado-ado)
row,Binder,pKd
1,B1,below the threshold
2,B2,below the threshold
3,B3,below the threshold
